B1: scFv-VHH bispecific molecule JL5 x 6H4 (scFv (VL-L-VH)-L-VHH with C-tag) (bispecific antibody)
chain: QSVLTQPPSASGTPGQRVTISCSGSSSNIGSNIVNWYQQFPGTAPKLLIYSNNQRPSGVPDRVSGSKSGTSASLAISGLQSEDEADYYCAAWDDSLNGPVFGPGTKVTVLGGSEGKSSGSGSESKSTGGSQVQLQESGPGLVKPSETLSLTCSVSGASIRNYYWSWIRQTAGKGLEWLGHIYSTGNIHYNPSLKSRVTMSVDTSNNQFSLKLRSVTAADTAVYYCARDNGAALFDYWGQGTLVTVSSGGGGSEVQLVESGGGLVQAGGSLRLSCAASGRPFSNYGMGWFRQAPGKKREFVAGISWSGGSTDYADSVKGRFTISRDNAKNTVYLQMNSLKPEDTAVYYCAAVFSGAETAYYPSDDYDYWGQGTQVTVSSAAAEPEA
B2: scFv-VHH bispecific molecule JL3 x 6H4 (scFv (VL-L-VH)-L-VHH with C-tag) (bispecific antibody)
chain: QSVLTQPPSASGTPGQRVTISCSGSSSNIGSNIVNWYQQFPGTAPKLLLYSDNQRPSGVPDRFSGSKSGTSASLAISGLQSEDEADYYCAAWDDSLNGPVFGTGTKVTVLGGSEGKSSGSGSESKSTGGSQVQLQESGPGLVKPSETLSLTCSVSGGSIRNYYWSWIRQSAGKELEWFGHIFSTGHINYDSSLKSRVTMSVDTSNNQFSLKLRSVTAADTAVYYCARDNGAALFDFWGQGTLVTVSSGGGGSEVQLVESGGGLVQAGGSLRLSCAASGRPFSNYGMGWFRQAPGKKREFVAGISWSGGSTDYADSVKGRFTISRDNAKNTVYLQMNSLKPEDTAVYYCAAVFSGAETAYYPSDDYDYWGQGTQVTVSSAAAEPEA
B3: scFv-VHH bispecific molecule JL2 x 6H4 (scFv (VL-L-VH)-L-VHH with C-tag) (bispecific antibody)
chain: DIVMTQSPLSLPVTPGEPASISCRSSQSLLHSDGYNYLDWYLQKSGQSPQLLIYLGSYRASGVPDRFSGSGSGTDFTLKISRVEAEDVGIYYCMQVLQTPWTFGQGTKVEIKGGSEGKSSGSGSESKSTGGSEVQLVESGGGLVQPGGSLRLSCVVSGFTFSSYWMTWVRQAPGKGLEWVANIKQDGSERYYVDSVKGRFTISRDSAKNSLYLQMNSLRAEDTAVYYCAREVGYNWNQGGYFDYWGQGTLVTVSSGGGGSEVQLVESGGGLVQAGGSLRLSCAASGRPFSNYGMGWFRQAPGKKREFVAGISWSGGSTDYADSVKGRFTISRDNAKNTVYLQMNSLKPEDTAVYYCAAVFSGAETAYYPSDDYDYWGQGTQVTVSSAAAEPEA
B4: scFv-VHH bispecific molecule JL1 x 6H4 (scFv (VL-L-VH)-L-VHH with C-tag) (bispecific antibody)
chain: DIVMTQSPLSLPVTPGEPASISCKSSQSLLFSNGYKFLDWYLQRPGQSPQLLIYLGSYRASGVPDRFSGSGSGTDFTLKISRVEAEDVGLYYCMQALQTPPTFGGGTKVEIKGGSEGKSSGSGSESKSTGGSEVQLVESGGGLVQPGGSLKVSCEASGFTFSVSAIHWVRQASGKGLEWIGRIRSKGNSYATAYAASVKGRFTISRDDSKNTAYLQMDSLKTEDTAVYYCTRHNDKWNYYGLDVWGQGTTVTVSSGGGGSEVQLVESGGGLVQAGGSLRLSCAASGRPFSNYGMGWFRQAPGKKREFVAGISWSGGSTDYADSVKGRFTISRDNAKNTVYLQMNSLKPEDTAVYYCAAVFSGAETAYYPSDDYDYWGQGTQVTVSSAAAEPEA
B5: scFv-VHH bispecific molecule JL4 x 6H4 (scFv (VL-L-VH)-L-VHH with C-tag) (bispecific antibody)
chain: DVVMTQSPLSLPVTLGQPASISCRSSQSLVYSDGNTYLNWFQQRPGQSPRRLIYKVSTRDSGVPDRFSGSGSGTDFTLKISRVEAEDVAVYYCLQGTHWPWTFGQGTKVEIKGGSEGKSSGSGSESKSTGGSQVQLVESGGGLVQPGGSLRLSCAASGITFSNYWMSWVRQAPGKGLEWVASIKRDGSDKYYVDSVKGRFTISRDNAKNSLSLQMHSLRAEDTAVYYCAKGEFDYWGQGTLVTVSSGGGGSEVQLVESGGGLVQAGGSLRLSCAASGRPFSNYGMGWFRQAPGKKREFVAGISWSGGSTDYADSVKGRFTISRDNAKNTVYLQMNSLKPEDTAVYYCAAVFSGAETAYYPSDDYDYWGQGTQVTVSSAAAEPEA

Biological target: human CD33 on CD33-expressing THP-1 cells (human, UniProt P20138 18-364)
Sequence (P20138 18-364): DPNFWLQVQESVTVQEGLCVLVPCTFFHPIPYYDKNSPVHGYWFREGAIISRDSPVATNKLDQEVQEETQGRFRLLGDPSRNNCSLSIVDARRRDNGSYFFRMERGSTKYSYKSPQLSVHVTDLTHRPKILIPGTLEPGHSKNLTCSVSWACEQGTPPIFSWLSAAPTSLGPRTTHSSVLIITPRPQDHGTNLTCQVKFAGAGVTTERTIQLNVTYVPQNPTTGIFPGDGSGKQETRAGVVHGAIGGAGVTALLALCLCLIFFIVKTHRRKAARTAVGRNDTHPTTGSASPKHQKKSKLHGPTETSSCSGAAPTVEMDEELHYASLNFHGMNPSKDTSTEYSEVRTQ
Test: cell-based or functional assay

Binder | Cytotox EC50 (nM) Donor 104 | Cytotox EC50 (nM) Donor 156
B1 | ~0.0013 nM | ~0.0019 nM
B2 | ~0.00079 nM | ~0.00099 nM
B3 | ~0.00097 nM | ~0.00077 nM
B4 | 0.011 nM | 0.0098 nM
B5 | ~0.0004 nM | ~0.00035 nM

Source: patent US20240409634A1 (Janssen / Centocor, published 2024)
